Data from the nanobody polyreactivity screen of Harvey et al. (2022).

Assay: yeast display, Sf9 membrane polyspecificity reagent, FACS + sequencing; frameworks hold sequencing errors
In short: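 In a synthetic yeast display library (Saccharomyces cerevisiae BJ5465), nanobody expression was induced with galactose for 36–48 hours. FACS gates were set low and high (top ~1%) using anti-HA fluorescence for expression and streptavidin fluorescence for binding of the Sf9 membrane reagent. Each polyreactivity label is drawn from the gate of origin.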

Sequence	polyreactivity (PSR sort gate)
QVQLVESGGGLVQAGGSLRLSCAASGLTFPHYTMGWYRQAPGKEREFVARITGSGGRTYYADSVKGRFTISRDNAKNTVDLQRNSLKPEVTGVYYCARDRGYQSGYDYWGQGTQVSVSS	high polyreactivity
QVQLVESGGGLVQAGGSLRLSCAASGLTFPPNAMGWYRQAPGKEREFVAVISSGGGSTYYADSVMGRFTISRDHAKNTVYLQMNSLKPEDTAVYNCATEYQDGDTEYYYWGQGTQVTVSS	low polyreactivity
QVQLVESGGGLVQAGGSLRLSCAASGLTFPPYAMGWYRQAPGKERELVATISFSTGNTYYADSVKGRFTISRDNAKNTVYLQLNSLKPEDTADYYCNKVFVLPYKFVAWFDSWGQGTQVTVSS	low polyreactivity
QVQLVESGGGLVQAGGSLRLSCAASGLTFPSNAMGWYRQAPGKERELVAAISKRGGRTFYADSVKGRFTISRDNAKNTVYLQMNSLKPEDTAVYYCATPYAYPGTVQYAGYNYWGQGTQVTVSS	high polyreactivity
QVQLVESGGGLVQAGGSLRLSCAASGLTFPYYAMGWYRQAPGKERELVAAISSSGGSTYYADSVKGRFTISRDNAKNTVYLQMNSLKPEDTAVYYCAAQRYINYDYWGQGTQVTVSS	high polyreactivity
QVQLVESGGGLVQAGGSLRLSCAASGLTFPYYVMGWYIQAPGKERELVAAIDDGGGSTYYADSVKGRFTISRDNAKNTVYLQMNSLKPEDTAVYYCAAQVDYLAHYGYWGQGTQVTVSS	low polyreactivity
QVQLVESGGGLVQAGGSLRLSCAASGLTFQLYTMGWYRQAPGKERELVAAISRSGTRTYYADSVKGRFTISRDNAKNTVYLQMNSLKPEDTAVYYCAARTDGYRNNYWGQGTQVTVSS	high polyreactivity
QVQLVESGGGLVQAGGSLRLSCAASGLTFQVNDMGWYRQAPGKERELVAGITFSGGSTYYPDSVKWRITISRDNAKTTVYLQMNSLKPEDTAVYYCADDTIIGYLYHNVVPTFDYWGQGTQVTVSS	low polyreactivity
QVQLVESGGGLVQAGGSLRLSCAASGLTFQWNAMGWYRQATGKERELVAVITDIGDSTYYADSVKGRFTISRDNAKNTVYLQMNSLKPEDTAVYYCAADFGTISIDVYSWMDYWGQGTQVTVSS	low polyreactivity
QVQLVESGGGLVQAGGSLRLSCAASGLTFQYNTMGWYRQAPGKERELVARINWGGDSTYYADSVKGRFTISRDNAKNTVYLQMNSLTPEDTAVYYCAAPGYSGRYGYYTYYLYDYWGQGTQVTVSS	low polyreactivity
QVQLVESGGGLVQAGGSLRLSCAASGLTFQYYAMGWYRQAPGKERELVATISGRAGRTYYADSVKGRFTISRDNAKNTVYLQMNSLKPEDTAVYYCAAEVDYSLYTWYEYYYWGQGTQVTVSS	high polyreactivity
QVQLVESGGGLVQAGGSLRLSCAASGLTFRANDMGWYRQAPGKERELVAGITESGDSTYYADSVKGRFTISRDNAKNTVYLQMNSLKPEDTAVYYCAAGSYYWYWYRVGEWYAYEYWGQGTQVTVSS	low polyreactivity
QVQLVESGGGLVQAGGSLRLSCAASGLTFRAYVMGWYRQAPWKERELVAAISVSGGSTYYADSVKGRFTISRDNAKNKVYLQLNSLKPEDTAVYYFAAAYSSSKSSGNYYYWGLGTQVTVSS	high polyreactivity
QVQLVESGGGLVQAGGSLRLSCAASGLTFRFYTMGWYRQAPGKERELVAAISTSGGSTYYADSVKGRFTISRDNAKNTVYLQMNSLKPEDTAVYYCNAQVWFYYFQSGYDYWGQGTQVTVSS	low polyreactivity
QVQLVESGGGLVQAGGSLRLSCAASGLTFRIYAMGWYRQAPGKERELVAAISWNGGSTYYADSVKGRFTISRDNAMNTVYLQMNSLKPEDTAVYYFNADPSDRRYPHTWTKMGYWGQGTQVTVSS	low polyreactivity
QVQLVESGGGLVQAGGSLRLSCAASGLTFRKYAMGWYRQAPGKERELVAAITRGGSTNYADSVKGRFTISRDNAKNTVYLQMNSLKPEDTAVYYCAAQYTYRFPYPGYATTHDYWGQGTQVTVSS	high polyreactivity

Sequence	polyreactivity (PSR sort gate)
QVQLVESGGGLVQAGGSLRLSCAASGLTFRKYAMGWYRQAPGKERELVAGISSGGSTYYADSVKGRFTISRDNAKNTVYLQMNSLKPEDTAVYYCAAKALRTMYYWGQGTQVTVSS	high polyreactivity
QVQLVESGGGLVQAGGSLRLSCAASGLTFRKYVMGWYRQAPGKERELVAAISGGGGSTYYADSVKGRFTISRDNAKNTVYLQMNSLKPEDTAVYYCAAVIYRGYYYWGQGTQVTVSS	high polyreactivity
QVQLVESGGGLVQAGGSLRLSCAASGLTFRNYAMGLYRQAPGKERELDAAISRSGGSTYYADSVKGRFTISRDYAKNTVYLHMNSLKPEDTAVYYCATRTYRESTYDYWGQGTQVTVSS	high polyreactivity
QVQLVESGGGLVQAGGSLRLSCAASGLTFRNYAMGWYRQAPGKEREVVADISWSGGSTYYADSVKGRFTISRDNAKITVYLQMNSLKPEDTAVYYCAARFHYPGGPRYYYWGQGTQVTVSS	high polyreactivity
QVQLVESGGGLVQAGGSLRLSCAASGLTFRRYDMGWNRQAPGKEREFVAAITWSTGSTYYADSVKGRFTISRDNAKNTDYLPMNSLKPEDTAVYYCAARSGYFYRYYKYDYWGQGTQVTVSS	high polyreactivity
QVQLVESGGGLVQAGGSLRLSCAASGLTFRVYAMGWYRQAPGKERELVAAITGGGRTYYADSVKGRFTISRDNAKNTVYLQMNSLKPEDTAVYYCAAAGYYVWGQGTQVTVSS	high polyreactivity
QVQLVESGGGLVQAGGSLRLSCAASGLTFRWYAMGWYRQAPGKERELVAAISSGGSTNYADSVKGRFTISRDNAKNTVYLQMNSLKPEDTAVDYCNAKGRPWFKYDYWGQGTQVTVSS	high polyreactivity
QVQLVESGGGLVQAGGSLRLSCAASGLTFRYYAMGWYRQAPGKERELVAAISSRGASTYYADSVKGRFTISRDNAKNTVYLQMNSLKPEDTAVYYCAVRTYVYHWSFSSLPYDYWGEGTQVTVSS	high polyreactivity
QVQLVESGGGLVQAGGSLRLSCAASGLTFRYYAMGWYRQEPGKERELVATITRAGRTNYADSVKGRFTISRDNAKNTVYLQMNSLKPEDTAVYYCNAKQSGKYPRVVGYDYWGQGTQVTVSS	high polyreactivity
QVQLVESGGGLVQAGGSLRLSCAASGLTFRYYAMVWYRQAPGKERELVATITRAGRTNYADSVKGRFTISRDNAKNTVYLQMNSLKPEDTAVYYCATKRVLTGFDSWGQGTQVTVSS	high polyreactivity
QVQLVESGGGLVQAGGSLRLSCAASGLTFRYYTMGWYRQAPVKERELVAAISRGGSTTYADSVKGRFTISRVNAKNTVYLQMNSLKPEDTAVYYCAVRPGTWSNYYAGGKKYDYWGLGTQVTVSS	high polyreactivity
QVQLVESGGGLVQAGGSLRLSCAASGLTFSAYAMGWYRQAPGKERELVAAITSSGGSTYADSVKGRFTISRDNAKNTVYLQMNSLKPEDTAVYYCAARVVRYGYKYYYWGQGTQVTVSS	low polyreactivity
QVQLVESGGGLVQAGGSLRLSCAASGLTFSENAMGWYRQAPGKERELVAAISWSGTTTYYADSVKGRFTISRDNAKNTVYLQMNSLKPEDTAVYYCAADTIFYGYWGQGTQVTVSS	low polyreactivity
QVQLVESGGGLVQAGGSLRLSCAASGLTFSHYAMGWYRQAPGKERELVAGISSRGGNTYYADSVKGRFTISRDYAKNTVYLQMNSLKPEDTAVFYCNAPKPKRAYDYWGQGSQVTVSS	high polyreactivity
QVQLVESGGGLVQAGGSLRLSCAASGLTFSKNARGWYRQSPGKDRELVATISYSSSRTNYADSVKGRFTISRVNAKNPVYLQMNSLKPEDTAVYYCAARVYNGWPTHYDYWGQGTQVTVSS	high polyreactivity
